Test results reported in paper PMC3777854 (Journal of clinical pharmacology, 2013).
Entries after “also recorded” stand apart in the source; their conditions may differ.

Columns and labels:
[1] = test system: CYP3A; experiment: Effect of brentuximab vedotin on midazolam PK
[2] = Safety assessments: adverse events and laboratory abnormalities; format: in vivo, human
[3] = test system: relapsed/refractory systemic ALCL; conditions: 1.8 mg/kg IV every 3 weeks for up to 16 cycles; cited from earlier work
[4] = test system: CYP3A; experiment: Effect of ketoconazole on brentuximab vedotin; format: in vivo, human; conditions: geometric mean (%CV); for ADC Cmax: serum, n=16
[5] = test system: antitherapeutic antibodies (ATA); experiment: Antitherapeutic antibodies; format: in vivo, human
[6] = test system: CYP3A; experiment: Effect of rifampin on brentuximab vedotin; format: in vivo, human; conditions: brentuximab vedotin 1.8 mg/kg alone, geometric mean (%CV), n=11

Cc1ncc2n1-c1ccc(Cl)cc1C(c1ccccc1F)=NC2 [Midazolam, midazolam]
Tmax ([1]; human, plasma, intravenous): 2.52 min
half-life ([1]; human, plasma, intravenous): 5.69 h
Tmax ([1]; human, plasma, intravenous, 1 mg): 3 min
AUC(0-inf) ([1]; human, plasma, iv, 1 mg): 79 ng·h/mL
Cmax ([1]; human, plasma, iv, 1 mg): 73 ng/mL
half-life ([1]; human, plasma, iv, 1 mg): 6.4 h

brentuximab vedotin: ADC directed to human CD30: MMAE conjugated to the anti-CD30 antibody cAC10 through a protease-cleavable linker
Adverse events: Any event ([2]; Ket arm, both cycles (n = 19)): 19 (100) n (%)
Adverse events: Diarrhea ([2]; Ket arm, both cycles (n = 19)): 6 (32) n (%)
Adverse events: Fatigue ([2]; Ket arm, both cycles (n = 19)): 8 (42) n (%)
Adverse events: Headache ([2]; Ket arm, both cycles (n = 19)): 4 (21) n (%)
Adverse events: Nausea ([2]; Ket arm, both cycles (n = 19)): 9 (47) n (%)
Adverse events: Neutropenia ([2]; Ket arm, both cycles (n = 19)): 3 (16) n (%)
Adverse events: Pruritis ([2]; Ket arm, both cycles (n = 19)): 4 (21) n (%)
Adverse events: Pyrexia ([2]; Ket arm, both cycles (n = 19)): 7 (37) n (%)
Adverse events: Vomiting ([2]; Ket arm, both cycles (n = 19)): 6 (32) n (%)
Adverse events: Any event ([2]; Ket arm, post-ket (N = 19)): 16 (84) n (%)
Adverse events: Diarrhea ([2]; Ket arm, post-ket (N = 19)): 6 (32) n (%)
Adverse events: Fatigue ([2]; Ket arm, post-ket (N = 19)): 5 (26) n (%)
Adverse events: Headache ([2]; Ket arm, post-ket (N = 19)): 4 (21) n (%)
Adverse events: Nausea ([2]; Ket arm, post-ket (N = 19)): 5 (26) n (%)
Adverse events: Neutropenia ([2]; Ket arm, post-ket (N = 19)): 3 (16) n (%)
Adverse events: Pruritis ([2]; Ket arm, post-ket (N = 19)): 3 (16) n (%)
Adverse events: Pyrexia ([2]; Ket arm, post-ket (N = 19)): 2 (11) n (%)
Adverse events: Vomiting ([2]; Ket arm, post-ket (N = 19)): 6 (32) n (%)
Adverse events: Any event ([2]; Ket arm, pre-ket (N = 19)): 16 (84) n (%)
Adverse events: Diarrhea ([2]; Ket arm, pre-ket (N = 19)): 1 (5) n (%)
Adverse events: Fatigue ([2]; Ket arm, pre-ket (N = 19)): 4 (21) n (%)
Adverse events: Headache ([2]; Ket arm, pre-ket (N = 19)): 0 n (%)
Adverse events: Nausea ([2]; Ket arm, pre-ket (N = 19)): 5 (26) n (%)
Adverse events: Neutropenia ([2]; Ket arm, pre-ket (N = 19)): 0 n (%)
Adverse events: Pruritis ([2]; Ket arm, pre-ket (N = 19)): 1 (5) n (%)
Adverse events: Pyrexia ([2]; Ket arm, pre-ket (N = 19)): 6 (32) n (%)
Adverse events: Vomiting ([2]; Ket arm, pre-ket (N = 19)): 3 (16) n (%)
Adverse events: Any event ([2]; Mid arm, both cycles (n = 16)): 14 (88) n (%)
Adverse events: Diarrhea ([2]; Mid arm, both cycles (n = 16)): 3 (19) n (%)
Adverse events: Fatigue ([2]; Mid arm, both cycles (n = 16)): 3 (19) n (%)
Adverse events: Headache ([2]; Mid arm, both cycles (n = 16)): 4 (25) n (%)
Adverse events: Nausea ([2]; Mid arm, both cycles (n = 16)): 2 (13) n (%)
Adverse events: Neutropenia ([2]; Mid arm, both cycles (n = 16)): 1 (6) n (%)
Adverse events: Pruritis ([2]; Mid arm, both cycles (n = 16)): 1 (6) n (%)
Adverse events: Pyrexia ([2]; Mid arm, both cycles (n = 16)): 0 n (%)
Adverse events: Vomiting ([2]; Mid arm, both cycles (n = 16)): 2 (13) n (%)
Adverse events: Any event ([2]; Rif arm, Cycle 1 (N = 21)): 18 (86) n (%)
Adverse events: Diarrhea ([2]; Rif arm, Cycle 1 (N = 21)): 2 (10) n (%)
Adverse events: Fatigue ([2]; Rif arm, Cycle 1 (N = 21)): 1 (5) n (%)
Adverse events: Headache ([2]; Rif arm, Cycle 1 (N = 21)): 3 (14) n (%)
Adverse events: Nausea ([2]; Rif arm, Cycle 1 (N = 21)): 6 (29) n (%)
Adverse events: Neutropenia ([2]; Rif arm, Cycle 1 (N = 21)): 6 (29) n (%)
Adverse events: Pruritis ([2]; Rif arm, Cycle 1 (N = 21)): 3 (14) n (%)
Adverse events: Pyrexia ([2]; Rif arm, Cycle 1 (N = 21)): 6 (29) n (%)
Adverse events: Vomiting ([2]; Rif arm, Cycle 1 (N = 21)): 2 (10) n (%)
Adverse events: Any event ([2]; Rif arm, Cycle 2 (N = 20)): 17 (85) n (%)
Adverse events: Diarrhea ([2]; Rif arm, Cycle 2 (N = 20)): 3 (15) n (%)
Adverse events: Fatigue ([2]; Rif arm, Cycle 2 (N = 20)): 4 (20) n (%)
Adverse events: Headache ([2]; Rif arm, Cycle 2 (N = 20)): 2 (10) n (%)
Adverse events: Nausea ([2]; Rif arm, Cycle 2 (N = 20)): 2 (10) n (%)
Adverse events: Neutropenia ([2]; Rif arm, Cycle 2 (N = 20)): 5 (25) n (%)
Adverse events: Pruritis ([2]; Rif arm, Cycle 2 (N = 20)): 2 (10) n (%)
Adverse events: Pyrexia ([2]; Rif arm, Cycle 2 (N = 20)): 0 n (%)
Adverse events: Vomiting ([2]; Rif arm, Cycle 2 (N = 20)): 1 (5) n (%)
Adverse events: Any event ([2]; Rif arm, both cycles (n = 21)): 20 (95) n (%)
Adverse events: Diarrhea ([2]; Rif arm, both cycles (n = 21)): 4 (19) n (%)
Adverse events: Fatigue ([2]; Rif arm, both cycles (n = 21)): 5 (24) n (%)
Adverse events: Headache ([2]; Rif arm, both cycles (n = 21)): 5 (24) n (%)
Adverse events: Nausea ([2]; Rif arm, both cycles (n = 21)): 6 (29) n (%)
Adverse events: Neutropenia ([2]; Rif arm, both cycles (n = 21)): 7 (33) n (%)
Adverse events: Pruritis ([2]; Rif arm, both cycles (n = 21)): 4 (19) n (%)
Adverse events: Pyrexia ([2]; Rif arm, both cycles (n = 21)): 6 (29) n (%)
Adverse events: Vomiting ([2]; Rif arm, both cycles (n = 21)): 2 (10 n (%)
Adverse events: Any event ([2]; Total, both cycles (N = 56)): 53 (95) n (%)
Adverse events: Diarrhea ([2]; Total, both cycles (N = 56)): 13 (23) n (%)
Adverse events: Fatigue ([2]; Total, both cycles (N = 56)): 16 (29) n (%)
Adverse events: Headache ([2]; Total, both cycles (N = 56)): 13 (23) n (%)
Adverse events: Nausea ([2]; Total, both cycles (N = 56)): 17 (30) n (%)
Adverse events: Neutropenia ([2]; Total, both cycles (N = 56)): 11 (20) n (%)
Adverse events: Pruritis ([2]; Total, both cycles (N = 56)): 9 (16) n (%)
Adverse events: Pyrexia ([2]; Total, both cycles (N = 56)): 13 (23) n (%)
Adverse events: Vomiting ([2]; Total, both cycles (N = 56)): 10 (18) n (%)
treatment-emergent peripheral neuropathy ([2]; all patients (N = 56), 2 treatment cycles): 18%
low hemoglobin, change from Grade 1 or 2 to ≥ Grade 3 ([2]; all patients, 5 patients): 9%
low lymphocyte counts, change from Grade 1 or 2 to ≥ Grade 3 ([2]; all patients, 5 patients): 9%
low platelet counts, change from Grade 1 or 2 to ≥ Grade 3 ([2]; all patients, 5 patients): 9%
elevated ALT, change from Grade 1 or 2 to ≥ Grade 3 ([2]; all patients, 6 patients): 11%
low white blood cell count, change from Grade 1 or 2 to ≥ Grade 3 ([2]; all patients, 7 patients): 13%
peripheral neuropathy events ([2]; ketoconazole arm, after ketoconazole, 1 patient): 5%
elevated AST (adverse event) ([2]; ketoconazole arm, after ketoconazole, 2 patients): 11%
incidence of adverse events ≥ Grade 3 ([2]; ketoconazole arm, before ketoconazole dosing, 4 patients): 21%
elevated AST (adverse event) ([2]; ketoconazole arm, before ketoconazole, 1 patient): 5%
peripheral neuropathy events ([2]; ketoconazole arm, before ketoconazole, 2 patients): 11%
elevated ALT (adverse event) ([2]; ketoconazole arm, both before and after ketoconazole, 1 patient): 5%
objective response rate [3]: 86%
ADC t1/2 ([4]; brentuximab vedotin 1.2 mg/kg alone, n=11): 5.70 (33) d
ADC Cmax ([4]; brentuximab vedotin 1.2 mg/kg alone): 22.57 (23) μg/mL
ADC Cmax ([4]; brentuximab vedotin 1.2 mg/kg with ketoconazole): 22.38 (70) μg/mL
patients with at least 1 positive postbaseline ATA result ([5]; PK-evaluable patients in the ketoconazole arm): 8 of 16
patients with at least 1 positive postbaseline ATA result ([5]; PK-evaluable patients in the rifampin arm): Five of 14
patients free of confirmed ATA at baseline but positive at one or both postbaseline timepoints ([5]; all patients): Eighteen
titers of all confirmed positive ATA results ([5]; with one exception (one patient 3125 prior to second dose)): ≤ 125
inhibition or induction of CYP3A in humans (conclusion) ([1]; brentuximab vedotin 1.8 mg/kg, midazolam as probe substrate): neither inhibitors nor inducers of CYP3A; also recorded: neither inhibit nor induce CYP3A
ADC t1/2 [6]: 5.87 (66) d
ADC Cmax ([6]; serum): 36.74 (34) μg/mL
